Experimental data: PMC4693281

B1: bovine ZP3 fragment Arg-32 to Glu-178, N-terminal His-tag and S-tag [modified: N-glycosylated Asn-124 and Asn-146; N-glycosylated Asn-124 and Asn-146] [bovine] / bovine ZP4 (Lys-25 to Arg-464) with N-terminal FLAG-tag and … (parent)
chain 1: RFRPSKPPAVMVECQEAQLVVTVDKDLFGTGKLIRPADLTLGPDNCEPLASADTDGVVRFAVGLHECGNILQVTDNALVYSTFLLHNPRPAGNLSILRTNRAEVPIECHYPRQGNVSSWAIQPTWVPFRTTVFSEEKLVFSLRLMEE
chain 2: KVPEYPDELRCGLRSFQFTINPLSQETETPPVLVAWDNHGLPHSLQNDSDCGTWVSEGPGSSLVGEASYSGCYVTEWESYYIMTVGIERAGVSGSGAFIETKLFKCPVNLPDVPNAGLCDSVPVWDRLPCAPSPITQGDCKQLGCCYNSEEVISCYYGNTVTSHCTQDGHFSIAVSRNVTSPPLLLNSVHLAFRNDSECKPVMATHTFVLFRFPFTTCGTTKQITGKQAVYENELVAARDVRTWSRGSITRDSTFRLQVSCSYSASSSALPVNVQVLTLPPPLPETQPGNLTLELKIAKDKRYRSYYTASDYPVVKLLRDPIYVEVSIHQRTDPSLELRLDQCWATPGADALLQPQWPLLVNGCPYTGDNYQTKLIPVWEASDLPFPSHYQRFSISTFSFVDSVAKRALKGPVYLHCSASVCQPAGTPSCVTLCPARRRR

Variants of: B1
Test: co-precipitation (TALON resin pull-down of His-tagged ZP3 fragment, anti-FLAG Western blot quantified with NIH ImageJ)
Conditions: with bovine ZP4 (Lys-25 to Arg-464) with N-terminal FLAG-tag and S-tag [bovine]; parent: 100; read off a plot

percent of parent [%]	Variant
130	chain 1 RFRPSKPPAVMVECQEAQLVVTVDKDLFGTGKLIRPADLTLGPDNCEPLASADTDGVVRFAVGLHECGNILQVTDNALVYSTFLLHNPRPAGNLSILRTNRAEVPIECHYPRQGDVSSWAIQPTWVPFRTTVFSEEKLVFSLRLMEE
100	chain 1 RFRPSKPPAVMVECQEAQLVVTVDKDLFGTGKLIRPADLTLGPDNCEPLASADTDGVVRFAVGLHECGNILQVTDNALVYSTFLLHNPRPAGDLSILRTNRAEVPIECHYPRQGNVSSWAIQPTWVPFRTTVFSEEKLVFSLRLMEE
110	chain 1 RFRPSKPPAVMVECQEAQLVVTVDKDLFGTGKLIRPADLTLGPDNCEPLASADTDGVVRFAVGLHECGNILQVTDNALVYSTFLLHNPRPAGDLSILRTNRAEVPIECHYPRQGDVSSWAIQPTWVPFRTTVFSEEKLVFSLRLMEE
